Measured values published in patent US7959916B2, “Negative immunomodulation of immune responses by ERp5” (Fred Hutchinson Cancer Research Center, priority 2007, dated 2011).
Where a chain is given by its changes, count along the chain named. In names and notes the source's numbering stands.

Tests used:
[1] = tested on: surface expression of MICA; experiment: MICA surface expression on tumor cell lines (flow cytometry); conditions: tumor lines exposed to DTNB or PAO at titered non-toxic concentrations
[2] = tested on: sMICA shedding by Hela and A375 cells; experiment: sMICA shedding by tumor cell lines (ELISA for sMICA)
MICA [3] = biological target: T1, MICA (Homo sapiens, UniProt Q29983); experiment: ERp5 activity assay on MICA substrates (non-reducing SDS-PAGE); assay type: biochemical; conditions: isolated α1α2 platform (residues 1-180)
T1 sequence (Q29983 24-203): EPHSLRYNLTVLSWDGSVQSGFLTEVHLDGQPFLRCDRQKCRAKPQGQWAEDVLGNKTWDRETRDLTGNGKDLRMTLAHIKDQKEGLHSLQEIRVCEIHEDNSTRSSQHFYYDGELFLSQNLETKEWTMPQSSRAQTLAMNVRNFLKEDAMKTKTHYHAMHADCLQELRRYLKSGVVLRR

MICA [4] = biological target: T2, MICA (Homo sapiens, UniProt Q29983); experiment: as above; assay type: biochemical; conditions: ectodomain MICA, RT, no reducing agents
T2 sequence (Q29983 24-299): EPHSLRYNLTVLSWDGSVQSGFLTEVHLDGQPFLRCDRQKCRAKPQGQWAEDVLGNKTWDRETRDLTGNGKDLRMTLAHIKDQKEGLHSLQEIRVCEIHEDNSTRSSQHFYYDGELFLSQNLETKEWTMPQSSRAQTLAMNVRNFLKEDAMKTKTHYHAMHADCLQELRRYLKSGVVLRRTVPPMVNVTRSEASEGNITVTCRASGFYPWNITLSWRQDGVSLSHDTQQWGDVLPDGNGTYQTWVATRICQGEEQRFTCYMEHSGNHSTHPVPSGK

[5] = tested on: Siderocalin and CD94-NKG2A; experiment: ERp5 activity assay on control proteins; assay type: biochemical; conditions: Siderocalin (intrachain) and CD94-NKG2A (intrachain and interchain) disulfide bonds
ERp5-MICA complexes = experiment: Capturing of ERp5-MICA complexes by co-immunoprecipitation from TCA-treated Hela cells; assay type: cell-based; conditions: Hela cells grown 16 h with increasing concentrations
Text: Immunoprecipitations and sMICA cleavage.

MICA [6] = biological target: T3, MICA (Homo sapiens, UniProt Q29983); experiment: ERp5 activity assay on MICA substrates (non-reducing SDS-PAGE); assay type: biochemical; conditions: isolated α3 domain (residues 187-274)
T3 sequence (Q29983 210-297): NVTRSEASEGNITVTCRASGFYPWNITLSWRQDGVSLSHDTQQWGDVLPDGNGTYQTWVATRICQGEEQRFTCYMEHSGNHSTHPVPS

[7] = tested on: PHA (or anti-CD3)-activated CD4 T cells; experiment: Cytokine production by activated CD4 T cells (17 multiplex cytokine analysis); assay type: cell-based; conditions: soluble MICA 10 ng/ml, 24 hour supernatants
Procedure: Total PBMC from healthy donors were cultured for 48 hours with PHA (1 μg/ml) or on solid-phase anti-CD3 (25 ng/ml) and stained for standard three-color flow cytometry using combinations of directly conjugated anti-CD3, -CD4 and -CD8 mAbs followed by anti-ERp5 and PE-goat anti-rabbit Ig. For cytokine analyses, bulk NKG2D^+ and NKG2D^− T cell populations purified by magnetic sorting were plated on solid-phase monoclonal antibodies with or without soluble MICA (10 ng/ml). 24 hour culture supernatants were screened by 17 multiplex cytokine analysis.

[8] = tested on: monocyte derived dendritic cells (mDC); experiment: Maturation marker expression on monocyte-derived dendritic cells (flow cytometry); assay type: cell-based; conditions: mDC matured with cytokine cocktail, soluble MICA 10 ng/ml
Procedure: Monocytes were enriched from normal peripheral blood mononuclear cells (PBMC) by plastic adherence and cultured under standard conditions in the presence of IL-4 and GM-CSF. Cells were harvested at 6 hour-intervals and stained with fluorescein isothiocyanate (FITC)-anti-CD83 or FITC-HLA-DR followed by saturating phycoerythrin (PE)-MICA tetramer concentrations or polyclonal rabbit anti-ERp5 and PE-goat anti-rabbit Ig. On day 6 of culture with IL-4/GM-CSF, mDC were matured (IL-1β, IL-6, TNFα, and PGE2) and MICA tetramer staining and Erp5 expression monitored for an additional 3 days. MICA tetramer was produced by ectodomain MICA protein expression in transfected 293T cells, protein purification from culture supernatant using Invitrogen technology, and BirA enzymatic biotinylation and conjugation with PE-streptavidin.
mDC were matured using standard cytokine cocktail (Il-1β, IL-6, TNFα, and PGE2) in the additional presence or absence of soluble MICA (10 ng/ml). Mature mDC were harvested after 24 to 48 hours and processed for standard flow cytometry of CD80 and CD83 expression. […] IL-6 contents in culture supernatants were measured by standard ELISA. […] After 72 hours, cells in wells were labeled with [^3H]thymidine for 24 hours and harvested for counting of incorporated radioactivity.

[9] = tested on: mDC and allogeneic T cells; experiment: Mixed-lymphocyte reaction, alloantigen presentation by mDC ([3H]thymidine incorporation); assay type: cell-based; conditions: MLR, soluble MICA 10 ng/ml, 72 h
Procedure: mDC were matured using standard cytokine cocktail (Il-1β, IL-6, TNFα, and PGE2) in the additional presence or absence of soluble MICA (10 ng/ml). Mature mDC were harvested after 24 to 48 hours and processed for standard flow cytometry of CD80 and CD83 expression. For IL-6 secretion assays, 24 hour cytokine-matured mDC were washed, mixed with irradiated C1R-Neo (control), C1R-MICA or C1R-ULBP1 cells at a ratio of 2:1 and plated at 50,000 (experiment 1 and 2) or 200,000 mDC (experiment 3 and 4) per round-bottom 96-well in 200 μl AIM-V media with LPS (10 μg/ml). IL-6 contents in culture supernatants were measured by standard ELISA. The ability of mature mDC to present alloantigen in the presence or absence of soluble MICA was studied using standard mixed-lymphocyte reaction (MLR). Irradiated (3000 Rad) cytokine-matured mDC and allogeneic T cells were plated at various ratios (X-axis of bottom bar graph) with or without soluble MICA (10 ng/ml AIM-V) in round-bottom 96-well plates. After 72 hours, cells in wells were labeled with [^3H]thymidine for 24 hours and harvested for counting of incorporated radioactivity.

ERp5 = biological target: T4, ERp5 (Homo sapiens, UniProt Q15084); experiment: MICA tetramer binding to NKG2D-negative tumor cells (flow cytometry); conditions: U266, Hela, HCT116, Lovo and A375 cells, competition with unglycosylated protein
T4 sequence (Q15084 20-440): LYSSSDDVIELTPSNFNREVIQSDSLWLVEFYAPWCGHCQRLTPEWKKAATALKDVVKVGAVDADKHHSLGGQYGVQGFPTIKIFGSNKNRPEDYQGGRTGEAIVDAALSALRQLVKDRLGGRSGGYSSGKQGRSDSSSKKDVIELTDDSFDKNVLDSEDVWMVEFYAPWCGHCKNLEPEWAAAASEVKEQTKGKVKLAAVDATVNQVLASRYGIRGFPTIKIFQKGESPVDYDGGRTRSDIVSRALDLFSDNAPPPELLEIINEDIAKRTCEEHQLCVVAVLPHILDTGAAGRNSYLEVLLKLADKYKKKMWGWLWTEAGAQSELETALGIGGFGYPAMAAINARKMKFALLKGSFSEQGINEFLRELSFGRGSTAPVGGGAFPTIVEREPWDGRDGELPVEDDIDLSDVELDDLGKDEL

For `O=C(O)c1cc(SSc2ccc([N+](=O)[O-])c(C(=O)O)c2)ccc1[N+](=O)[O-]` [DTNB, 5,5-dithiobis-(2-nitrobenzoic acid), reference compound], which “surface expression of MICA” value [1] is on record?
Its value is “without affecting surface expression of MICA”.

What about the “shedding of sMICA” value ([2]; Hela and A375 cells, 24 h exposure, ELISA, dose-dependent) of the same molecule?
Its value is “reduce shedding of sMICA”.

How did the “activity on MICA α1α2 domain” value (MICA [3]) turn out when “ERp5: recombinant ERp5 (residues 1-421 of the mature protein) produced in bacteria” was run?
The value was “no activity”.

What about the “reduction of MICA disulfide bond” value (MICA [4]) of the same molecule?
Its value is “gradual reduction of MICA”.

What about the “reduction of unrelated proteins” value [5] of the same molecule?
Its value is “did not affect”.

B1: dRNase: Denatured and reduced RNase A, excess substrate shifting ERp5 equilibrium towards the reduced state (protein, UniProt P61823 27-150, looked up)
Ribonuclease pancreatic: KETAAAKFERQHMDSSTSAASSSNYCNQMMKSRNLTKDRCKPVNTFVHESLADVQAVCSQKNVACKNGQTNCYQSYSTMSITDCRETGSSKYPNCAYKTTQANKHIIVACEGNPYVPVHFDASV
modifications: denatured and reduced
notes: Denatured and reduced RNase A, excess substrate shifting ERp5 equilibrium towards the reduced state
With B1 as the molecule, how does the sMICA shedding ([2]; Hela and A375 cell cultures treated with dRNase, 16 h) read?
The sMICA shedding was “promotes sMICA shedding”.

And the “ERp5 co-immunoprecipitating with MICA, emergence of sMICA” value (ERp5-MICA complexes)?
Its value is “larger amounts of ERp5 co-immunoprecipitating with MICA”.

B2: native RNase: native RNase A used as control for dRNase (protein, UniProt P61823 27-150, looked up)
Ribonuclease pancreatic: B1 Ribonuclease pancreatic
How did the “ERp5 co-immunoprecipitating with MICA, emergence of sMICA” value (ERp5-MICA complexes) turn out when B2 was run?
The value was “None of those biochemical changes were observed”.

B3: C36S: C36S mutant of ERp5 fragment 1-118 (protein)
chain: LYSSSDDVIELTPSNFNREVIQSDSLWLVEFYAPWSGHCQRLTPEWKKAATALKDVVKVGAVDADKHHSLGGQYGVQGFPTIKIFGSNKNRPEDYQGGRTGEAIVDAALSALRQLVKD
modifications: left off: small tags and cut ends
For B3, which “reduction of MICA disulfide bond” value (MICA [4]) is on record?
The value was “no activity”.

B4: ERp51-118: recombinant N-terminal thioredoxin-like domain fragment of ERp5, residues 1-118 (protein)
chain: B3 chain with S36C
modifications: left off: small tags and cut ends
B4 was tested. Which “reduction of MICA disulfide bond” value (MICA [4]) did it give?
Its value is “partially reduced”.

B5: C39S: C39S mutant of ERp5 fragment 1-118 (protein)
chain: B3 chain with S36C, C39S
modifications: left off: small tags and cut ends
For B5, which “activity on MICA α3 domain” value (MICA [6]) is on record?
Its value is “reduces the MICA α3 disulfide bond”.

And the “reduction of MICA disulfide bond” value (MICA [4])?
The value was “formed a trapped disulfide-linked intermediate”.

B6: soluble MICA: soluble form of MHC class I-related chain A, NKG2D ligand binding ERp5 (protein)
chain: T2 sequence (Q29983 24-299)
How did the “amounts of IL-1β, IL-17, G-CSF and MCP1” value ([7]; NKG2D-CD4+ T cells) turn out when B6 was run?
Its value is “increased amounts”.

And the “amounts of IL-1β, IL-17, G-CSF and MCP1” value ([7]; activated NKG2D+CD4+ T cells)?
The value was “vastly increased”.

What about the “expression of DC maturation markers (CD83; CD80)” value [8] of the same molecule?
Its value is “diminished”.

And the “ability of mDC to present alloantigen and stimulate T cells” value [9]?
Its value is “reduced ability to present alloantigen and stimulate T cells”.

B7: rMICA: Non-glycosylated recombinant MICA expressed in bacteria (protein)
chain: T2 sequence (Q29983 24-299)
For B7, which “MICA tetramer binding to NKG2D- tumor cells” value (ERp5) is on record?
The value was “inhibited”.
